The values below come from patent US20120322150A1 (CARNEGIE INSTITUTION OF WASHINGTON, published 2012).

One assay has as its target T1, nYFP-AtSK12 (Arabidopsis, UniProt P43289 1-409).
T1 construct: BiFC construct in transgenic Arabidopsis; not shown: N-terminal half of YFP (nYFP)
T1 sequence (looked up): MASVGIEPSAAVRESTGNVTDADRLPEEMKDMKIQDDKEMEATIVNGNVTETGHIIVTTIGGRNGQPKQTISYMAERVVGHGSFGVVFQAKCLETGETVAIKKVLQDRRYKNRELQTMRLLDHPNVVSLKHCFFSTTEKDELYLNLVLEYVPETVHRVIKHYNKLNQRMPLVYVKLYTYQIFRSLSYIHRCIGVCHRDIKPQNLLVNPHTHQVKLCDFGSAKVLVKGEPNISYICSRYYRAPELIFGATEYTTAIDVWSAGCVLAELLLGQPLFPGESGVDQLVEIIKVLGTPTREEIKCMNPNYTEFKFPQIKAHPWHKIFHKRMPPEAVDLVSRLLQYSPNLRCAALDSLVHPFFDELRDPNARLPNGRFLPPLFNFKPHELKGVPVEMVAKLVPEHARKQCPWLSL
Put plainly: BiFC in Arabidopsis seedlings, epidermal cells. As for the experimental part: (§1) FIGS. 5A-5G show regulation of the BIN2 homolog, AtSK12 BSU1-mediated tyrosine dephosphorylation. […] Activation domain (AD) fused AtSKs were transformed into the cells containing DNA binding domain (BD) fused BZR1. Yeast clones were grown on Synthetic Dropout (SD) or SD-Histidine medium. […] Transgenic Arabidopsis plants expressing nYFP-BIN2, nYFP-AtSK12 and nYFP-AtSK12-cd (C-terminal 29 amino acid deletion) were crossed to BZR1-cYFP plants, respectively. The seedlings of F1 generation were grown in white light for 7 days and YFP signals of epidermal cells were observed. […] GST-AtSK12 was incubated with MBP-BZR1 and ³²P-γATP. CBB indicates Coomassie brilliant blue-stained gel. […] Homozygous plants expressing AtSK12-myc were treated with 0.25 MM BL for 30 min. Proteins immunoprecipitated by anti-myc antibodies were blotted onto nitrocellulose membrane and probed by anti-myc antibody. […] (h) BR induces pTyr dephosphorylation of AtSK12. Homozygous AtSK12-myc plants were pretreated with 10 μM MG132 and then treated with 0.25 μM BL (+BL) or mock solution (−BL). […]
(§2) Transformation by Agrobacterium infiltration, observations of subcellular localization and BiFC signal in tobacco or Arabidopsis were performed as described previously 5. Fluorescence of YFP was visualized by using a spinning-disk confocal microscope (Leica Microsystems, Heerbruag, Germany).

In another assay the target is T2, nYFP-BIN2 (Arabidopsis, UniProt Q39011 1-380).
T2 construct: BiFC construct in transgenic Arabidopsis, crossed to BZR1-cYFP plants; not shown: N-terminal half of YFP (nYFP)
T2 sequence (looked up): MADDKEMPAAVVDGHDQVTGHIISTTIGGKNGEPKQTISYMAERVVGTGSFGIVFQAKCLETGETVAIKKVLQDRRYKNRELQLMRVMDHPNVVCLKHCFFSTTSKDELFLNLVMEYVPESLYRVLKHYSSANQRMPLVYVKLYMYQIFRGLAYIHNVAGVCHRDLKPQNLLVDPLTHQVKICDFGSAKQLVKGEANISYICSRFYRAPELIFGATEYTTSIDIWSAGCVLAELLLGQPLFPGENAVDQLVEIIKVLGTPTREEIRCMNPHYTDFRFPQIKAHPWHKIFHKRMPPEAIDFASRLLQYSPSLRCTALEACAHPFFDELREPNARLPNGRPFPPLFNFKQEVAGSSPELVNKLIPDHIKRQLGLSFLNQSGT
The assay can be described thus: BiFC in Arabidopsis seedlings, epidermal cells. As for the experimental part: as §1, §2

The target of the next assay is T3, MBP-BSU1 (Arabidopsis, UniProt Q9LR78 1-793).
T3 construct: Recombinant fusion used as probe in overlay (far-western) blots and in phosphatase assays; also called BSU1 from E. coli
T3 sequence (Q9LR78 whole entry, the tested form may be a part): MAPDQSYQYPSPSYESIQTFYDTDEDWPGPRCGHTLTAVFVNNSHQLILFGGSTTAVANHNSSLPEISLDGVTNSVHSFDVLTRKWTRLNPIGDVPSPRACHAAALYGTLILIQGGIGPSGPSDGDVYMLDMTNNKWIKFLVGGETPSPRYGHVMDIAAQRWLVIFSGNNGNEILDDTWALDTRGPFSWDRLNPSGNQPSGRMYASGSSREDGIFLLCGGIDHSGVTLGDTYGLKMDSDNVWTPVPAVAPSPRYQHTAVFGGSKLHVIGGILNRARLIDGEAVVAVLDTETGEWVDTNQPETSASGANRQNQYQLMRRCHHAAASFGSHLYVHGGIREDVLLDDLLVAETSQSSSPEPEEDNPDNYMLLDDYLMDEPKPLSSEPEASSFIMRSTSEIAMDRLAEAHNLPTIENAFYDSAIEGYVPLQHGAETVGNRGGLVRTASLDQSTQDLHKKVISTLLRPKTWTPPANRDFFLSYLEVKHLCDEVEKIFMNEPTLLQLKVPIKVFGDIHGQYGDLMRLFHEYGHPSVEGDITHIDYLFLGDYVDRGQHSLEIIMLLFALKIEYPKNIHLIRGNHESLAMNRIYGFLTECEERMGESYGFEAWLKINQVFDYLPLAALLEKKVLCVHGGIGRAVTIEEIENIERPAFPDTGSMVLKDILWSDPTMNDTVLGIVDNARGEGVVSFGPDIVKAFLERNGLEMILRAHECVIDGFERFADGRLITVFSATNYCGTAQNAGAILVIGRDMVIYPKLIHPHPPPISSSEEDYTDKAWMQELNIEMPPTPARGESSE
Put plainly: overlay blot with MBP-BSU1 after incubation of GST-BSK1 with GST-BRI1-K. As for the experimental part:
Total protein extracts obtained from Arabidopsis plants (F1) expressing BSU1 -YFP or co-expressing BSU1-YFP and BSK1-myc were immunoprecipitated with anti-myc, and the immunoblot was probed with anti-GFP and anti-myc antibody. […] GST-BSK1 or GST-BSK1 S230A was incubated with GST-BRI1-K or GST for 2 hrs. […] In the presence of BR (+BR), BR binding to the extracellular domain of BRI1 induces dissociation of BKI1 and association and inter-activation between BRI1 and BAKI. Activated BRI1 then phosphorylates BSK1, which in turn dissociates from the receptor complex and interacts with and presumably activate BSU1. BSU1 inactivates BIN2 by dephosphorylating its pTyr200, allowing accumulation of unphosphorylated BZR1/2, likely with help of a phosphatase that is yet to be identified. Unphosphorylated BZR1/2 accumulate in the nucleus and alter the expression of BR-target genes, leading to cellular and developmental responses. While individual representative protein is shown for each function, in Arabidopsis most of these components have about 2 to 5 homologous proteins (paralogs) that can contribute to the same or similar signaling function.
To test interaction of BSU1 with BIN2 or bin2-1 in vitro, a gel blot separating GST, GST-BIN2, GSTbin2-1 was incubated with 20 μg MBP-BSU1 in 5% non-fat dry milk/PBS buffer and washed four times. The blot was then probed with a polyclonal anti-MBP antibody. […]

B1: BZR1-cYFP (other, Arabidopsis, UniProt Q8S307 1-336, looked up)
chain: MTSDGATSTSAAAAAAAAAAARRKPSWRERENNRRRERRRRAVAAKIYTGLRAQGDYNLPKHCDNNEVLKALCVEAGWVVEEDGTTYRKGCKPLPGEIAGTSSRVTPYSSQNQSPLSSAFQSPIPSYQVSPSSSSFPSPSRGEPNNNMSSTFFPFLRNGGIPSSLPSLRISNSCPVTPPVSSPTSKNPKPLPNWESIAKQSMAIAKQSMASFNYPFYAVSAPASPTHRHQFHTPATIPECDESDSSTVDSGHWISFQKFAQQQPFSASMVPTSPTFNLVKPAPQQMSPNTAAFQEIGQSSEFKFENSQVKPWEGERIHDVGMEDLELTLGNGKARG
notes: BiFC construct in transgenic Arabidopsis; not shown: C-terminal half of YFP (cYFP)
With B1, the binding result in the assay with nYFP-AtSK12 and in the assay with nYFP-BIN2 was “binds” in each case.

B2: GST-BSK1 phosphorylated by GST-BRI1-K (enzyme, Arabidopsis, UniProt Q944A7 1-512, looked up)
chain: MGCCQSLFSGDNPLGKDGVQPQPLSQNNHGGATTADNGGSGGASGVGGGGGGGGIPSFSEFSFADLKAATNNFSSDNIVSESGEKAPNLVYKGRLQNRRWIAVKKFTKMAWPEPKQFAEEAWGVGKLRHNRLANLIGYCCDGDERLLVAEFMPNDTLAKHLFHWENQTIEWAMRLRVGYYIAEALDYCSTEGRPLYHDLNAYRVLFDEDGDPRLSCFGLMKNSRDGKSYSTNLAYTPPEYLRNGRVTPESVTYSFGTVLLDLLSGKHIPPSHALDMIRGKNIILLMDSHLEGKFSTEEATVVVELASQCLQYEPRERPNTKDLVATLAPLQTKSDVPSYVMLGIKKQEEAPSTPQRPLSPLGEACSRMDLTAIHQILVMTHYRDDEGTNELSFQEWTQQMKDMLDARKRGDQSFREKDFKTAIDCYSQFIDVGTMVSPTVFGRRSLCYLLCDQPDAALRDAMQAQCVYPDWPTAFYMQSVALAKLNMNTDAADMLNEAAQLEEKRQRGGRGS
modifications: phosphorylated by BRI1 kinase domain in vitro; phospho-Ser230 as the site named
notes: GST-BSK1 incubated with GST-BRI1-K and 100 uM ATP for 2 hrs before SDS-PAGE; also called phosphorylated BSK1; not shown: GST (glutathione S-transferase) tag
Consider B2, for which, in the assay with MBP-BSU1, the binding result is listed as “binds”.
